Measurements reported in US20250223280A1.
*1 amine or outer side, *2 acyl side, *3 side chain or, on linkers, in order; H or OH if unused. Bridges are numbered along the chain shown (N, C = ends). [ ]: non-standard residue; d: D form. N5,N5‑dimethylglutamine = CN(C)C(=O)CC[C@H](N[*:1])C(=O)[*:2]; Pro(4S-NH2) = N[C@@H]1CN[C@H](C(=O)O)C1

B1: Intermediate 22 (peptide)
peptide: cyclo([Pro(4S-NH2)]DCAWHLG[N5‑methylglutamine]LVWCT[dP])
modifications: disulfide 3-13
B2: Intermediate 16 (peptide)
peptide: cyclo([Pro(4S-NH2)]DCTWHLGELVWCT[dP])
modifications: disulfide 3-13
SMILES: CC(C)C[C@@H]1NC(=O)[C@H](Cc2c[nH]cn2)NC(=O)[C@H](Cc2c[nH]c3ccccc23)NC(=O)[C@H]([C@@H](C)O)NC(=O)[C@@H]2CSSC[C@H](NC(=O)[C@H](Cc3c[nH]c4ccccc34)NC(=O)[C@H](C(C)C)NC(=O)[C@H](CC(C)C)NC(=O)[C@H](CCC(=O)O)NC(=O)CNC1=O)C(=O)N[C@@H]([C@@H](C)O)C(=O)N1CCC[C@@H]1C(=O)N1C[C@@H](N)C[C@H]1C(=O)N[C@@H](CC(=O)O)C(=O)N2
B3: Intermediate 24 (peptide)
peptide: PDCAWHLGELVWCTP
modifications: residue 1 = (2S,4S)-4-aminoproline; residue 12 = D-Trp; residue 15 = D-Pro; backbone cyclised head to tail; disulfide Cys3-Cys13
B4: Intermediate 25 (peptide)
peptide: cyclo([Pro(4S-NH2)]ACAWHLGALVWCT[dP])
modifications: disulfide 3-13
SMILES: CC(C)C[C@@H]1NC(=O)[C@H](C)NC(=O)CNC(=O)[C@H](CC(C)C)NC(=O)[C@H](Cc2c[nH]cn2)NC(=O)[C@H](Cc2c[nH]c3ccccc23)NC(=O)[C@H](C)NC(=O)[C@@H]2CSSC[C@H](NC(=O)[C@H](Cc3c[nH]c4ccccc34)NC(=O)[C@H](C(C)C)NC1=O)C(=O)N[C@@H]([C@@H](C)O)C(=O)N1CCC[C@@H]1C(=O)N1C[C@@H](N)C[C@H]1C(=O)N[C@@H](C)C(=O)N2
B5: Intermediate 15 (peptide)
peptide: cyclo([Pro(4S-NH2)]ACSWHLGELVWCT[dP])
modifications: disulfide 3-13
SMILES: CC(C)C[C@@H]1NC(=O)[C@H](Cc2c[nH]cn2)NC(=O)[C@H](Cc2c[nH]c3ccccc23)NC(=O)[C@H](CO)NC(=O)[C@@H]2CSSC[C@H](NC(=O)[C@H](Cc3c[nH]c4ccccc34)NC(=O)[C@H](C(C)C)NC(=O)[C@H](CC(C)C)NC(=O)[C@H](CCC(=O)O)NC(=O)CNC1=O)C(=O)N[C@@H]([C@@H](C)O)C(=O)N1CCC[C@@H]1C(=O)N1C[C@@H](N)C[C@H]1C(=O)N[C@@H](C)C(=O)N2
B6: Intermediate 19 (peptide)
peptide: PDCAWHLGELVWCTP
modifications: residue 1 = (2S,4S)-4-aminoproline; residue 12 = 6-chlorotryptophan; residue 15 = D-Pro; backbone cyclised head to tail; disulfide Cys3-Cys13
B7: Intermediate 27 (peptide)
peptide: cyclo([Pro(4S-NH2)]NCAWHLG[N5,N5‑dimethylglutamine]LVWCT[dP])
modifications: disulfide 3-13
SMILES: CC(C)C[C@@H]1NC(=O)[C@H](Cc2c[nH]cn2)NC(=O)[C@H](Cc2c[nH]c3ccccc23)NC(=O)[C@H](C)NC(=O)[C@@H]2CSSC[C@H](NC(=O)[C@H](Cc3c[nH]c4ccccc34)NC(=O)[C@H](C(C)C)NC(=O)[C@H](CC(C)C)NC(=O)[C@H](CCC(=O)N(C)C)NC(=O)CNC1=O)C(=O)N[C@@H]([C@@H](C)O)C(=O)N1CCC[C@@H]1C(=O)N1C[C@@H](N)C[C@H]1C(=O)N[C@@H](CC(N)=O)C(=O)N2
B8: Intermediate 23 (peptide)
peptide: cyclo([Pro(4S-NH2)]DCAWHLG[N5,N5‑dimethylglutamine]LVWCT[dP])
modifications: disulfide 3-13
SMILES: CC(C)C[C@@H]1NC(=O)[C@H](Cc2c[nH]cn2)NC(=O)[C@H](Cc2c[nH]c3ccccc23)NC(=O)[C@H](C)NC(=O)[C@@H]2CSSC[C@H](NC(=O)[C@H](Cc3c[nH]c4ccccc34)NC(=O)[C@H](C(C)C)NC(=O)[C@H](CC(C)C)NC(=O)[C@H](CCC(=O)N(C)C)NC(=O)CNC1=O)C(=O)N[C@@H]([C@@H](C)O)C(=O)N1CCC[C@@H]1C(=O)N1C[C@@H](N)C[C@H]1C(=O)N[C@@H](CC(=O)O)C(=O)N2
B9: Intermediate 21 (peptide)
peptide: PDCXWHLGELVWCTP
modifications: residue 1 = (2S,4S)-4-aminoproline; residue 4 (X) = homoserine; residue 15 = D-Pro; backbone cyclised head to tail; disulfide Cys3-Cys13
B10: Intermediate 18 (peptide)
peptide: cyclo([Pro(4S-NH2)]DCAWHLGQLVWCT[dP])
modifications: disulfide 3-13
SMILES: CC(C)C[C@@H]1NC(=O)[C@H](Cc2c[nH]cn2)NC(=O)[C@H](Cc2c[nH]c3ccccc23)NC(=O)[C@H](C)NC(=O)[C@@H]2CSSC[C@H](NC(=O)[C@H](Cc3c[nH]c4ccccc34)NC(=O)[C@H](C(C)C)NC(=O)[C@H](CC(C)C)NC(=O)[C@H](CCC(N)=O)NC(=O)CNC1=O)C(=O)N[C@@H]([C@@H](C)O)C(=O)N1CCC[C@@H]1C(=O)N1C[C@@H](N)C[C@H]1C(=O)N[C@@H](CC(=O)O)C(=O)N2
B11: Intermediate 17 (peptide)
peptide: cyclo([Pro(4S-NH2)]DCAWHLGALVWCT[dP])
modifications: disulfide 3-13
SMILES: CC(C)C[C@@H]1NC(=O)[C@H](C)NC(=O)CNC(=O)[C@H](CC(C)C)NC(=O)[C@H](Cc2c[nH]cn2)NC(=O)[C@H](Cc2c[nH]c3ccccc23)NC(=O)[C@H](C)NC(=O)[C@@H]2CSSC[C@H](NC(=O)[C@H](Cc3c[nH]c4ccccc34)NC(=O)[C@H](C(C)C)NC1=O)C(=O)N[C@@H]([C@@H](C)O)C(=O)N1CCC[C@@H]1C(=O)N1C[C@@H](N)C[C@H]1C(=O)N[C@@H](CC(=O)O)C(=O)N2
B12: Intermediate 28 (peptide)
peptide: cyclo([Pro(4S-NH2)]NCAWHLGALVWCT[dP])
modifications: disulfide 3-13
SMILES: CC(C)C[C@@H]1NC(=O)[C@H](C)NC(=O)CNC(=O)[C@H](CC(C)C)NC(=O)[C@H](Cc2c[nH]cn2)NC(=O)[C@H](Cc2c[nH]c3ccccc23)NC(=O)[C@H](C)NC(=O)[C@@H]2CSSC[C@H](NC(=O)[C@H](Cc3c[nH]c4ccccc34)NC(=O)[C@H](C(C)C)NC1=O)C(=O)N[C@@H]([C@@H](C)O)C(=O)N1CCC[C@@H]1C(=O)N1C[C@@H](N)C[C@H]1C(=O)N[C@@H](CC(N)=O)C(=O)N2
B13: Intermediate 26 (peptide)
peptide: cyclo([Pro(4S-NH2)]ACAWHLG[N5,N5‑dimethylglutamine]LVWCT[dP])
modifications: disulfide 3-13
SMILES: CC(C)C[C@@H]1NC(=O)[C@H](Cc2c[nH]cn2)NC(=O)[C@H](Cc2c[nH]c3ccccc23)NC(=O)[C@H](C)NC(=O)[C@@H]2CSSC[C@H](NC(=O)[C@H](Cc3c[nH]c4ccccc34)NC(=O)[C@H](C(C)C)NC(=O)[C@H](CC(C)C)NC(=O)[C@H](CCC(=O)N(C)C)NC(=O)CNC1=O)C(=O)N[C@@H]([C@@H](C)O)C(=O)N1CCC[C@@H]1C(=O)N1C[C@@H](N)C[C@H]1C(=O)N[C@@H](C)C(=O)N2

Biological target: IgG
Test: SPR, IgG immobilised on CM5 chip, compound as analyte; value from the legend of the grade (++++ = Kd <100 nM)

Kd, < 100 nM:
B1
B2
B3
B4
B5
B6
B7
B8
B9
B10
B11
B12
B13

Biological target: IgG
Test: SPR, IgG immobilised on CM5 chip, compound as analyte; value from the legend of the grade (**** = Kd <100 nM)

Kd, < 100 nM:
B1
B2
B3
B4
B5
B6
B7
B8
B9
B10
B11
B12
B13
